Source: article PMC6326779 (2018)

Target: T1, CRBN (Homo sapiens, UniProt Q96SW2)
T1 chain: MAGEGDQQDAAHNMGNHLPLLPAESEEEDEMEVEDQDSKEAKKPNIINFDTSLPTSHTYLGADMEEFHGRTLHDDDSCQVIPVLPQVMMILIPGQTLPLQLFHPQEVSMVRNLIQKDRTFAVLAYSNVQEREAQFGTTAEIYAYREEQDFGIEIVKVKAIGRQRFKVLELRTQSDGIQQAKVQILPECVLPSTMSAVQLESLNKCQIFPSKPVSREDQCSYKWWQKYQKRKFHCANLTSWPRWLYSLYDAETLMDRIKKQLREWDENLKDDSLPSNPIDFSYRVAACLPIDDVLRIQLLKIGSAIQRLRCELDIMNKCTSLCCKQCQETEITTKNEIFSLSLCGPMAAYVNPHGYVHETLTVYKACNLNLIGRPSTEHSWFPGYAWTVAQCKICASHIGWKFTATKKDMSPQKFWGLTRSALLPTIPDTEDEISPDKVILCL
Test: TR-FRET

B1: IKZF1 ZF2-ZF3 143-243(Δ197-238) (protein)
chain: RPFQCNQCGASFTQKGNLLRHIKLHSGEKPFKCHLCNYACRRRDALTGHLRTHSVGKPHKCGYCGRSYKQRSSLEEHKERCHNYLESMGLPGTLYPVIKEE
modifications: pomalidomide
Ki: 165 nM
